Test results from US20080027001A1 (published 2008).
Positions count from the first letter of the chain named. Names may count otherwise. Each block holds one binder with its values, some of them ahead of it. Bridges are numbered along the chain shown (N, C = ends).

How the values were obtained:
[1] = biological target: T1, mutant NgR1 EM7 (K277D/R279D) (human, UniProt Q9BZR6 27-447); assay: Nogo-66-AP (10 µg/ml) on transfected COS-7 cells, AP luminescence
T1 construct: whole, on cells
T1 sequence (looked up): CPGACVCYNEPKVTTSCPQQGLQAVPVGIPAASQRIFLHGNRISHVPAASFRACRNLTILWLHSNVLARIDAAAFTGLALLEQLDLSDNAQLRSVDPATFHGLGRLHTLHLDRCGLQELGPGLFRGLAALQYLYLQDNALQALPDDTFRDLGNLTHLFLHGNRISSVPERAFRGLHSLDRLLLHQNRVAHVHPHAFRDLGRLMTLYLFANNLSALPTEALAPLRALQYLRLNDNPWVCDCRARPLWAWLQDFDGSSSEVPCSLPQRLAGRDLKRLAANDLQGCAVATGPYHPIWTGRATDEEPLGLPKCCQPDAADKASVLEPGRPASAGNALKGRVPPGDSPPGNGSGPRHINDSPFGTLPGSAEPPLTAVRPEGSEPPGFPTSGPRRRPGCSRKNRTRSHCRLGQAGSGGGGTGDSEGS
Procedure: (§1) The remaining cells were separately plated and assayed for surface expression of the NgR1 proteins by immunocytochemistry (Example 1.9) and for total NgR1 protein levels by Western blot analysis (Example 1.8). […] The next day, wells were rinsed once with HBAH (Hank's Balanced Salt Solution (HBSS) containing bovine serum albumin (0.5 mg/ml), NaN₃ (0.1%), and 20 mM HEPES pH 7.0) at room temperature followed by incubation with 100 μl of AP fusion protein (MAG-AP or Nogo-66-AP) diluted to a final concentration of 10 μg/ml in HBAH for 90 minutes. Wells were then washed six times with gentle shaking in HBAH at room temperature, five minutes each wash. Cells were then fixed with acetone-formaldehyde (60%-3%, in 20 mM HEPES, pH 7.0) for 15 seconds at room temperature, then washed three times for five minutes each with HBSS. Binding of AP-tagged ligands was measured using the Great EscAPe SEAP Kit (BD Biosciences) following the manufacturer's recommended protocol. Briefly, after aspirating HBSS, 60 μl of dilution buffer was added to each well, the plates were sealed, and then incubated at 65° C. for 90 min. Plates were cooled on ice and then 60 μl of assay buffer was added per well and incubated at room temperature for five minutes. Sixty microliters of diluted CSPD® substrate (Applied Biosystems, Foster City, Calif.) was then added per well, incubated for 10 minutes at room temperature, and then read on an LMAXII luminometer (Molecular Devices). Absolute binding numbers were corrected by subtracting average binding values obtained from mock-transfected controls. Binding was further corrected for sample-to-sample variations in transfection efficiency by normalizing to beta-galactosidase activity. Beta-galactosidase activity was measured using the luminescent beta-gal detection kit II (BD Biosciences) following the manufacturer's recommended protocol. Three independent binding experiments were conducted with six to eleven replicates per experiment. Background-subtracted, beta-galactosidase-corrected binding values were expressed relative to the wild type receptor.

[2] = biological target: T2, mutant NgR1 EM8 (K277A, R279A) (human, UniProt Q9BZR6 27-447); assay: as above
T2 construct: whole, on cells
T2 sequence (looked up): T1 sequence (looked up) with D251A, D253A
Procedure: as §1

mutant NgR1 EM10 (K277A) = biological target: T3, mutant NgR1 EM10 (K277A) (human, UniProt Q9BZR6 27-447); assay: as above
T3 construct: whole, on cells
T3 sequence (looked up): T1 sequence (looked up) with D251A, D253R
Procedure: as §1

mutant NgR1 EM11 (R279A) [3] = biological target: T4, mutant NgR1 EM11 (R279A) (human, UniProt Q9BZR6 27-447); assay: as above
T4 construct: whole, on cells
T4 sequence (looked up): T1 sequence (looked up) with D251K, D253A
Procedure: as §1

[4] = biological target: Recombinant MAG-Fc chimera (R&D Systems); assay: cell-based or functional assay
[5] = biological target: T1, mutant NgR1 EM7 (K277D/R279D); assay: MAG-AP (10 µg/ml) on transfected COS-7 cells, AP luminescence, corrected for background and transfection efficiency
Procedure: as §1

[6] = biological target: T2, mutant NgR1 EM8 (K277A, R279A); assay: as above
Procedure: as §1

mutant NgR1 EM11 (R279A) [7] = biological target: T4, mutant NgR1 EM11 (R279A); assay: as above
Procedure: as §1

binding result [1]: binds | binding result [2]: binds | binding result (mutant NgR1 EM10 (K277A)): binds | binding result (mutant NgR1 EM11 (R279A) [3]): binds
B1: Nogo-66-AP(C47V) (ligand)
chain: IIPVEEENPDFWNREAAEALGAAKKLQPAQTAAKNLIIFLGDGMGVSTVTAARILKGQKKDKLGPEIPLAMDRFPYVALSKTYNVDKHVPDSGATATAYLCGVKGNFQTIGLSAAARFNQCNTTRGNEVISVMNRAKKAGKSVGVVTTTRVQHASPAGTYAHTVNRNWYSDADVPASARQEGCQDIATQLISNMDIDVILGGGRKYMFRMGTPDPEYPDDYSQGGTRLDGKNLVQEWLAKRQGARYVWNRTELMQASLDPSVTHLMGLFEPGDMKYEIHRDSTLDPSLMEMTEAALRLLSRNPRGFFLFVEGGRIDHGHHESRAYRALTETIMFDDAIERAGQLTSEEDTLSLVTADHSHVFSFGGYPLRGSSIFGLAPGKARDRKAYTVLLYGNGPGYVLKDGARPDVTESESGSPEYRQQSAVPLDEETHAGEDVAVFARGPQAHLVHGVQEQTFIAHVMAFAACLEPYTACDLAPPAGTTDAAHPGRIYKGVIQAIQKSDEGHPFRAYLESEVAISEELVQKYSNSALGHVNVTIKELRRLFLVDDLVDSLKHHHHHH
notes: Any secretion signal in front of AP is not described; also called alkaline phosphatase-labeled Nogo-66

neurite outgrowth, MAG-Fc at 20 µg/ml: reduction of peptide efficacy against NRL2b [4]: ~2 fold
Binder: Ac-CQKARGC-NH2 (disulfide 1-7 (inferred)) [NRL2bA2 (N-Ac-CQKARGC-NH2)]

percent reduction in binding relative to wild type NgR1 [5]: 57% | percent reduction in binding relative to wild type NgR1 [6]: 58% | percent reduction in binding relative to wild type NgR1 (mutant NgR1 EM11 (R279A) [7]): 36%
B2: MAG-AP (N-terminal human myelin associated glycoprotein amino acids 1-516, C-terminal alkaline phosphatase domain amino acids 23-511, six C-terminal histidine … (ligand)
chain: GHWGAWMPSSISAFEGTCVSIPCRFDFPDELRPAVVHGVWYFNSPYPKNYPPVVFKSRTQVVHESFQGRSRLLGDLGLRNCTLLLSNVSPELGGKYYFRGDLGGYNQYTFSEHSVLDIVNTPNIVVPPEVVAGTEVEVSCMVPDNCPELRPELSWLGHEGLGEPAVLGRLREDEGTWVQVSLLHFVPTREANGHRLGCQASFPNTTLQFEGYASMDVKYPPVIVEMNSSVEAIEGSHVSLLCGADSNPPPLLTWMRDGTVLREAVAESLLLELEEVTPAEDGVYACLAENAYGQDNRTVGLSVMYAPWKPTVNGTMVAVEGETVSILCSTQSNPDPILTIFKEKQILSTVIYESELQLELPAVSPEDDGEYWCVAENQYGQRATAFNLSVEFAPVLLLESHCAAARDTVQCLCVVKSNPEPSVAFELPSRNVTVNESEREFVYSERSGLVLTSILTLRGQAQAPPRVICTARNLYGAKSLELPFQGAHRLMWAKIGPIIPVEEENPDFWNREAAEALGAAKKLQPAQTAAKNLIIFLGDGMGVSTVTAARILKGQKKDKLGPEIPLAMDRFPYVALSKTYNVDKHVPDSGATATAYLCGVKGNFQTIGLSAAARFNQCNTTRGNEVISVMNRAKKAGKSVGVVTTTRVQHASPAGTYAHTVNRNWYSDADVPASARQEGCQDIATQLISNMDIDVILGGGRKYMFRMGTPDPEYPDDYSQGGTRLDGKNLVQEWLAKRQGARYVWNRTELMQASLDPSVTHLMGLFEPGDMKYEIHRDSTLDPSLMEMTEAALRLLSRNPRGFFLFVEGGRIDHGHHESRAYRALTETIMFDDAIERAGQLTSEEDTLSLVTADHSHVFSFGGYPLRGSSIFGLAPGKARDRKAYTVLLYGNGPGYVLKDGARPDVTESESGSPEYRQQSAVPLDEETHAGEDVAVFARGPQAHLVHGVQEQTFIAHVMAFAACLEPYTACDLAPPAGTTDAAHPGHHHHHH
notes: range 1-516;range 23-511; also called alkaline phosphatase-labeled MAG; MAG-AP fusion protein
